Measured values taken from patent publication US9976167B2, “Group of glycosyltransferases and use thereof” (Shanghai Institutes For Biological Sciences, Chinese …, priority 2012, dated 2018).

B1: gGT25-5: glycosyltransferase protein with 472 amino acids, SEQ ID NO.: 20 (protein)
chain: MKSELIFVPVPAFGHLVGMVEMAKLFISRHENLSVTVLISKFFIDTGIDNYNKSLLAKPTPRLTIINLPEIDPQKYLLKPRCAIFPSLIENQKTHVRDVMSRMTQSESTRVVGLLADILFVDIFDIADEFNVPTYVYSPAGAGFLGLAFHLQTLNDDKKQDVTEFRNSDTELLVPSFANPVPAEFLPSIFLEKDGRHDVLLSLYWRCREAKGIIVNTFEELEPYAINSLRMDSMIPPIYPVGPILNLNGEGQNSDEAAVILGWLDDQPPSSVVFLCFGSFGSFPENQVKEIAMGLERSGHRFLWSLRPCISEGETTLQLKYSNLELPAGFLDRTSCVGKVIGWAPQMAILAHEAVGGFVSHCGWNSVLESVWYGMPVATWPMYGEQQLNAFEMVKELGLAVEIEVDYRNEYNKSDFIVKADEIETKIKKLMMDGKNSKIRKKVKEMKEKSRVAMSENGSSYTSLAKLFEEIM
modifications: Panax ginseng; gGT25-5
B2: gGT29: glycosyltransferase protein with 442 amino acids, SEQ ID NO.: 26 (protein)
chain: MDNQKGRISIALLPFLAHGHISPFFELAKQLAKRNCNVFLCSTPINLSSIKDKDSSASIKLVELHLPSSPDLPPHYHTTNGLPSHLMLPLRNAFETAGPTFSEILKTLNPDLLIYDFNPSWAPEIASSHNIPAVYFLTTAAASSSIGLHAFKNPGEKYPFPDFYDNSNITPEPPSADNMKLLHDFIACFERSCDIILIKSFRELEGKYIDLLSTLSDKTLVPVGPLVQDPMGHNEDPKTEQIINWLDKRAESTVVFVCFGSEYFLSNEELEEVAIGLEISTVNFIWAVRLIEGEKKGILPEGFVQRVGDRGLVVEGWAPQARILGHSSTGGFVSHCGWSSIAESMKFGVPVIAMARHLDQPLNGKLAAEVGVGMEVVRDENGKYKREGIAEVIRKVVVEKSGEVIRRKARELSEKMKEKGEQEIDRALEELVQICKKKKDEQ
modifications: Panax ginseng; gGT29
B3: 3GT4: glycosyltransferase protein with 458 amino acids, SEQ ID NO.: 43 (protein)
chain: MEREMLSKTHIMFIPFPAQGHMSPMMQFAKRLAWKGLRITIVLPAQIRDFMQITNPLINTECISFDFDKDDGMPYSMQAYMGVVKLKVTNKLSDLLEKQRTNGYPVNLLVVDSLYPSRVEMCHQLGVKGAPFFTHSCAVGAIYYNARLGKLKIPPEEGLTSVSLPSIPLLGRDDLPIIRTGTFPDLFEHLGNQFSDLDKADWIFFNTFDKLENEEAKWLSSQWPITSIGPLIPSMYLDKQLPNDKDNGINFYKADVGSCIKWLDAKDPGSVVYASFGSVKHNLGDDYMDEVAWGLLHSKYHFIWVVIESERTKLSSDFLAEAEAEEKGLIVSWCPQLQVLSHKSIGSFMTHCGWNSTVEALSLGVPMVALPQQFDQPANAKYIVDVWQIGVRVPIGEEGVVLRGEVANCIKDVMEGEIGDELRGNALKWKGLAVEAMEKGGSSDKNIDEFISKLVSS
modifications: Panax ginseng; 3GT4
B4: gGT29-3: glycosyltransferase protein with 442 amino acids, SEQ ID NO.: 28 (protein)
chain: MDNQEGRISIALLPFLAHGHISPFFELAKQLAKRNCNVFLCSTPINLSSIKNKDSSASIKLVELHLPSSPDLPPHYHTTNGLPSHLMVPLINAFETAGPTFSEILKTLNPDLLIYDFNPSWAPEIASSHNIPAVYFLTTAAASSSIGLHAFKNPGEKYPFPDFYDNSNNTPEPPSADNMKLLHDFIACFERSCDIILIKSFIELEGKYIDLLSTLSDKTLVPVGPLVQDPMGHNEDPKTEQIINWLDKRAESTVVFVCFGSEYFLSNEELEEVAIGLEISMVNFIWAVRLIEGEKKGVLPEGFVQRVGDRGLVVEGWAPQARILGHSSTGGFVSHCGWSSIAESMKFGVPVIAMARHLDQPLNGKLAAEVGVGMEVVRDENGKYKREGIAEVIRKVVVEKSGEVMRRKARELSEKMKEKGEEEIDRAVEELVQICKKKKDAQ
modifications: Panax ginseng; gGT29-3
B5: gGT29-4: glycosyltransferase protein with 446 amino acids, SEQ ID NO.: 55 (protein)
chain: MDNQKGRISIALLPFLAHGHISPFFELAKHLSKRNCNIFLCSTPINLSSIKNRISDKDSSASIKLVELHLPSSPDLPPHYHTTNGLPSHLMVPLRNAFETAAPTFSEILKTLNPDLLIYDFNPSWAPEIASSHNIPAVCFIIGGAASFSMSLHSFKNPGEKYPFLDFDDNSNITPEPPSADNMKLLLDFMTCFERSCDIILIKSFRELEGKYFDFYSTLSDKTLVPVGPLVQDPMGHNEDPKTEQFINWLDKRAESTVVFVCFGSEYFLSNEELEEVAIGLEISMVNFIWAVRLIEGEKKGVLPEGFVQRVGDRGLVVEGWAPQARILGHSSTGGFVSHCGWSSITESMKFGVPVIAMARHLDQPLNGKLAAEVGVGMEVVRDENGKYKREGIAEVIRKVVVEKSGEVMRRKARELSEKMKEKGEEEIDRAVEELVQICKKKKDEQ
modifications: Panax ginseng; gGT29-4
B6: gGT29-6: glycosyltransferase protein with 446 amino acids, SEQ ID NO.: 59 (protein)
chain: MDNQKGRISIVMLPFLAHGHISPFFELAKHLSKRNCNIFLCSTPINLSSIKNRISDKDSSASIKLVELHLPSSPDLPPHYHTTNGLPSHLMVPLRNAFETAAPTFSEILKTLNPDLLIYDFNPSWAPEIASSHNIPAVYFLTTAAASSSIGLHAFKNPGEKYPFPDFYDNSNNTPEPPSADNMKLLHDFIACFERSCDIILIKSFIELEGKYIDLLSTLSDKTLVPVGPLVQDPMGHNEDPKTEQIINWLDKRAESTVVFVCFGSEYFLSNEELEEVAIGLEISMVNFIWAVRLIEGEKKGVLPEGFVQRVGDRGLVVEGWAPQARILGHSSTGGFVSHCGWSSIAESMKFGVPVIAMARHLDQPLNGKLAAEVGVGMEVVRDENGKYKREDIAGVIRKVVVEKSGEVIRRKARELSEKMKEIGEQLIDRAVEELVQICKKKKDEQ
modifications: Panax ginseng; gGT29-6

Legend:
Type in all cases: biochemical
[1] = Glycosyltransfering reaction with crude enzyme, substrate DM; details: crude enzyme: lysate supernatant of recombinant yeast; UDP-glucose, 35° C., 12 hrs; TLC
Protocol: (§1) The lysate supernatant of the recombinant yeasts expressing the empty vector was used as control.
(§2) The reaction was conducted under 35° C. for 12 hrs, then stopped by adding 100 μL of butanol. The product were extracted, dried in vacuum, and dissolved in methanol.
(§3) The reaction products were first detected by thin layer chromatography (TLC).
(§4) The glycosyltransfering reactions of ginsenosides and ginsengenins were catalyzed by using the lysis supernatant of the recombinant yeasts expressing 3GT1, 3GT2, 3GT3 and 3GT4 as crude enzymes. The lysis supernatant of recombinant E. coli expressing empty vectors was used as control. The 100 μL reaction system is shown as Table 3. The reaction was conducted under 35° C. for 12 hrs, then stopped by adding 100 μL of butanol. The product were extracted, dried in vacuum, and dissolved in methanol.

[2] = Glycosyltransfering activities on ginsengenins and saponins: glycosylation site and specificity (summary)
Protocol: More than 100 predicted cDNA sequences of glycosyltransferases were extracted from the published expression profile data of the Panax plant. 60 cDNAs with full length were cloned, expressed, and subjected to the analysis of glycosyltransfering reaction.
as §1, §2, §4
(§5) The lysate supernatant of the recombinant yeast expressing empty vectors was used as control. The reaction was conducted under 35° C. for 12 hrs, and then stopped by adding 100 μL of butanol. The product were extracted, dried in vacuum, and dissolved in methanol.
(§6) The glycosyltransfering reactions of ginsenosides Rh2 and F2 were catalyzed by using the lysate supernatant of the recombinant yeasts expressing 3GT1, 3GT2, 3GT3 and 3GT4 as crude enzymes. The 100 μL reaction system is shown as Table 3. The reaction was conducted under 35° C. for 12 hrs, and then stopped by adding 100 μL of butanol. The product were extracted, dried in vacuum, and dissolved in methanol.

[3] = Glycosyltransfering reaction with crude enzyme, substrate PPD; details: UDP-glucose, 35° C., 12 hrs, TLC
Protocol: as §1, §2, §3
(§7) The converted products of gGT25 were further identified by HPLC (FIG. 10 and FIG. 11). The retention time of peak 2 was identical to that of the CK standard sample; the retention time of peak 3 was identical to that of PPD. […] Peak 1, also present in the profile of the negative control, indicated its irrelevance to the conversion of PPD. 3 peaks were shown in FIG. 11, the retention time of peak 1 was identical to that of F1 standard sample and peak 3 was identical to that of PPT. […] Peak 2, also present in the profile of the negative control, indicated its irrelevance to the conversion of PPT.
(§8) According to the method as in Example 4, the cell lysate of recombinant yeasts expressing gGT13 and gGT30 were used to catalyze PPD and PPT.
The cell lysis supernatant of the recombinant E. coli was used as crude enzyme to conduct the glycosyltransfering reaction, and the reaction condition was identical to that of Example 4.
The reaction was conducted under 35° C. for 12 hrs. 100 μL of butanol was added to stop the reaction and the products were extracted. Upon vacuum drying, the product was dissolved by methanol. TLC was first used to detect the reaction product.
as §4
The reaction was conducted under 35° C. for 12 hrs, and then stopped by adding 100 μL of butanol. The product were extracted, dried in vacuum, and dissolved in methanol. The reaction products were first detected by thin layer chromatography (TLC) (FIG. 35).

[4] = Glycosyltransfering reaction with crude enzyme, substrate PPT; details: crude enzyme: lysate supernatant of recombinant yeast; UDP-glucose, 35° C., 12 hrs; TLC
Protocol: as §1, §2, §3, §7, §8, §4

[5] = Glycosyltransfering reaction with crude enzyme, substrate Rh2; details: crude enzyme: lysate supernatant of recombinant yeast; 35° C., 12 hrs; TLC
Protocol: as §1, §2
The reaction products were first detected by thin layer chromatography (TLC). […]
as §5, §6

[6] = Glycosyltransfering reaction with crude enzyme, substrate F2; details: 35° C., 12 hrs, TLC; for extension of C3 of F2 by one more glycosyl (product Rd): crude enzyme: lysate supernatant of recombinant yeast; for extension of C3 glycosyl of F2 by one more glycosyl (product Rd): crude enzymes of Example 21 (E. coli expression products)
Protocol: as §8, §5, §6

[7] = Glycosyltransfering reaction with crude enzyme, substrate CK; details: 35° C., 12 hrs, TLC
Protocol: as §8, §4

[8] = Glycosyltransfering reaction with crude enzyme, substrate 25-OH-PPD; details: 35° C., 12 hrs, TLC
Protocol: as §4

[9] = Glycosyltransfering reaction with crude enzyme, substrate Rh2; details: crude enzymes of Example 21 (E. coli expression products); 35° C., 12 hrs; TLC
[10] = Table 2, tetracyclic triterpenoid substrates
[11] = crude enzyme: lysate supernatant of recombinant E. coli, UDP-glucose

Row | Molecule | extension of C3 of Rh2 by one more glycosyl (product Rg3) [5] | extension of C3 of F2 by one more glycosyl (product Rd) [6] | glycosylation site: The first glycosyl at C-3 [2, 10] | extension of C3 glycosyl of F2 by one more glycosyl (product Rd) [6] | extension of C3 glycosyl of Rh2 by one more glycosyl (product Rg3) [9] | other results
1 | B1 | – | – | – | – | – | glycosylation of C20-OH of DM (product 20-O-β-(D-glucopyranosyl)-dammarendiol II) [1]: could not glycosylate the C20-OH; glycosylation site: C6 [2, 10]: ✓; glycosylation of C20-OH of PPD (product CK) ([3]; crude enzyme: lysate supernatant of recombinant yeast): could not glycosylate the C20-OH; glycosylation of C6-OH of PPT (product Rg1 or Rh1) [4]: can only glycosylate C6-OH; glycosylation of C20-OH of PPT (product F1) [4]: could not glycosylate the C20-OH
2 | B2 | could be extended by one more glycosyl | could be extended by one more glycosyl | ✓ | – | – | –
3 | B3 | – | – | – | – | – | glycosylation of C3-OH of CK (product F2) ([7]; crude enzyme of Example 11): further glycosylating its C3-OH; substrate that could be catalyzed: CK [7, 11]: ✓; glycosylation site: C-3 [2, 10]: ✓; substrate spectrum / specificity ([2]; comparison of 3GT1, 3GT2, 3GT3 and 3GT4, Table 6): best specificity; substrate that could be catalyzed: PPD ([3]; crude enzyme: lysate supernatant of recombinant E. coli): ✓; glycosylation of C3-OH of 25-OH-PPD (product 3-O-β-(D-glucopyranosyl)-25-OH-PPD) ([8]; crude enzyme of Example 11): could be glycosylated; substrate that could be catalyzed: 25-OH-PPD [8, 11]: ✓
4 | B4 | could be extended by one more glycosyl | could be extended by one more glycosyl | ✓ | – | – | –
5 | B5 | – | – | ✓ | could be extended by one more glycosyl | could not be catalyzed | –
6 | B6 | – | – | ✓ | could be extended by one more glycosyl | could be extended by one more glycosyl | –
